Results published in the supplement of paper PMC10065799, “High-throughput profiling of sequence recognition by tyrosine kinases and SH2 domains using bacterial peptide display” (eLife, 2023).

target: SHP2-C SH2; assay: SH2 binding enrichment of the phosphorylated peptide, bacterial display (enrichment ratio); higher = better substrate or ligand; peptides without Tyr show the background
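Also: peptide library displayed on the E. coli surface as eCPX fusions, selected cells deep-sequenced, score is each peptide's frequency after selection divided by its frequency in the input.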

Row | Sequence | SH2 binding enrichment
1 | VAVVQYSGTGQ [COL6A1_Y878] | 0.413
2 | TVINKYQGKLF [HGD_Y249] | 0.811
3 | IEKLPYIDKWF [CPS1_Y872_T871P] | 0.679
4 | NRDNTYNPVSE [FGA_Y127_R129P] | 0.443
5 | KLIMEYLPFGS [JAK2_Y931_YF] | 0.788
6 | ASMAKYYASGI [ACADSB_Y372_E376G] | 0.595
7 | NTEGGYRCICA [CRELD1_Y328] | 0.489
8 | GDEEDYEEIPG [EGFR_opt_E_2015] | 0.624
9 | NAPNSYGRRPI [CDKN2A_Y44] | 0.799
10 | EMTAEYACTRK [ACAD9_Y325] | 1.03
11 | VSRGRYRPEEC [B4GALT4_Y113_Q116E] | 0.465
12 | VHNLDYYKMTT [FGFR3_Y647_K650M] | 0.643
13 | SREALYNETDP [CACNA1A_Y794_M797T] | 0.641
14 | LAAAGYDVKKN [H1-3_Y72_E75K] | 0.734
15 | TVDASYFGGRG [ANTXR2_Y380_YF] | 0.513
16 | CETMEYLESKQ [BTK_Y511_A508T] | 0.555
17 | QRKPSYNQLAS [BRCA2_Y71] | 1.14
18 | VTSLKYSTPPF [BRIP1_Y916_S919P_YF] | 0.56

The remaining lines, values ahead:

Row | SH2 binding enrichment | Sequence
19 | 1.3 | DDPRRYQKYGY [OAS1_Y362]
20 | 0.892 | QNTGVYYDLYG [PTPN11_Y62_D61V]
21 | 0.647 | VKPENYRRPDI [VHL_Y175_L178P]
22 | 0.65 | THEVRYISAGQ [SLCO4A1_Y77_V78I]
23 | 1.14 | VIGRMYDFHVL [RPF2_Y109_YF]
24 | 0.662 | ALEQKYWALGQ [MAP1A_Y1555]
25 | 0.902 | SVVVPHEPPEV [TP53_Y220_Y220H]
26 | 0.647 | VDEERYDIEAK [TNNI3_Y112]
27 | 0.493 | TNGFTYGSSHQ [MANEA_Y331]
28 | 0.625 | GADDSYFTVRS [ZAP70_Y492_A495V_YF]
29 | 0.592 | GNFSGYDDAWD [POLR1C_Y36_YF]

target: c-Src SH2; assay: as above

Row | Sequence | SH2 binding enrichment
30 | VAVVQYSGTGQ [COL6A1_Y878] | 0.451
31 | TVINKYQGKLF [HGD_Y249] | 0.504
32 | IEKLPYIDKWF [CPS1_Y872_T871P] | 0.642
33 | NRDNTYNPVSE [FGA_Y127_R129P] | 0.425
34 | KLIMEYLPFGS [JAK2_Y931_YF] | 0.714
35 | ASMAKYYASGI [ACADSB_Y372_E376G] | 0.466
36 | NTEGGYRCICA [CRELD1_Y328] | 0.465
37 | GDEEDYEEIPG [EGFR_opt_E_2015] | 0.779
38 | NAPNSYGRRPI [CDKN2A_Y44] | 0.392
39 | EMTAEYACTRK [ACAD9_Y325] | 0.692
40 | VSRGRYRPEEC [B4GALT4_Y113_Q116E] | 0.428
41 | VHNLDYYKMTT [FGFR3_Y647_K650M] | 1.07
42 | SREALYNETDP [CACNA1A_Y794_M797T] | 0.764
43 | LAAAGYDVKKN [H1-3_Y72_E75K] | 0.323
44 | TVDASYFGGRG [ANTXR2_Y380_YF] | 0.474
45 | CETMEYLESKQ [BTK_Y511_A508T] | 0.427
46 | QRKPSYNQLAS [BRCA2_Y71] | 1.06
47 | VTSLKYSTPPF [BRIP1_Y916_S919P_YF] | 0.492

Continued, values first:

Row | SH2 binding enrichment | Sequence
48 | 0.894 | DDPRRYQKYGY [OAS1_Y362]
49 | 4.65 | QNTGVYYDLYG [PTPN11_Y62_D61V]
50 | 0.427 | VKPENYRRPDI [VHL_Y175_L178P]
51 | 0.495 | THEVRYISAGQ [SLCO4A1_Y77_V78I]
52 | 0.876 | VIGRMYDFHVL [RPF2_Y109_YF]
53 | 1.49 | ALEQKYWALGQ [MAP1A_Y1555]
54 | 0.581 | SVVVPHEPPEV [TP53_Y220_Y220H]
55 | 0.62 | VDEERYDIEAK [TNNI3_Y112]
56 | 0.434 | TNGFTYGSSHQ [MANEA_Y331]
57 | 0.645 | GADDSYFTVRS [ZAP70_Y492_A495V_YF]
58 | 4.46 | GNFSGYDDAWD [POLR1C_Y36_YF]
